These results are taken from article PMC3902912.

The data set concerns the target T1, CTCF11ZF (UniProt Q61164 266-579).
T1 sequence: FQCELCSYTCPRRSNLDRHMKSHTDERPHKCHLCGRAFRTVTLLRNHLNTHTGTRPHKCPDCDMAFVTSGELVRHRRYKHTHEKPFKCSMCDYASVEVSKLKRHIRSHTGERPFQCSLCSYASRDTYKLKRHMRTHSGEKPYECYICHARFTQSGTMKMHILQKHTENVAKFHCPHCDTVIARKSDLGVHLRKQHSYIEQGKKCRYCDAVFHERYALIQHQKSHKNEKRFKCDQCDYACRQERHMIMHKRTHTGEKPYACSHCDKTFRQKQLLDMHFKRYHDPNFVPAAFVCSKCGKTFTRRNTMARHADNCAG
In words: FP competition.

B1: LowOc1_Scrambled (dsDNA)
DNA 1: CCCTGGTCGGTGTGGCTGGCGACACCTCGCACTCTG
DNA 2: CAGAGTGCGAGGTGTCGCCAGCCACACCGACCAGGG
Take B1: the binding result is “no binding”.
